From the supplement of paper PMC9170038

System: MS2 coat protein
Assay: apparent KD of MS2 coat protein; designed switch direction (-1 OFF switch, 1 ON switch): 1; higher = weaker reporter binding
Settings: Eterna round: R95
How it was run: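 The reported apparent KD is a per-design median over clusters, from curve fits of normalised cluster fluorescence. Protein titrations used SNAP-549-labelled MS2 coat protein, doubled from 0.7 or 1.5 nM to 3 µM, in Tris-HCl pH 7.5 buffer with KCl, MgCl2, BSA, DTT, tRNA and Tween-20, with no input, 200 uM small-molecule ligand, or an oligonucleotide input. The RNA switches were transcribed on Illumina chips by stalled E. coli RNA polymerase.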

[1] = input ligand: microRNA oligo, concentration not stated

Row | Sequence | apparent KD of MS2 coat protein (input ligand: FMN 200 uM) | apparent KD of MS2 coat protein [1] | apparent KD of MS2 coat protein (input ligand: none)
1 | AGUCCAGCCUGAGCUGGACAAAAGCAUGUACAUGAGGAUCACCCAUGUCAUGUACAAGCUUUUUGCUCGUCAUAAUA [Mat - hsa-mir-208a - Mod of JL - D28] (puzzle: Sensor for hsa-mir-208a) | 653 nM | 14.9 nM | 710 nM
2 | AGUCCAGCCUGAGCUGGACAAAAGCAUGUACAUGAGGAUCACCCAUGUCAUGUACAAGCUUUUUGCUCGUCUUAGAA [Mat - hsa-mir-208a - Mod of JL - D26] (puzzle: Sensor for hsa-mir-208a) | 624 nM | 16.7 nM | 756 nM
3 | AGUCCAGCCUGAGCUGGACAAAAGCAUGUACAUGAGGAUCACCCAUGUUCAUGUACAAGCUUUUUGCAAGUCAAAAG [Mat - hsa-mir-208a - Mod of JL - 75] (puzzle: Sensor for hsa-mir-208a) | 337 nM | 25.6 nM | 710 nM
4 | AGUCCAGCCUGAGCUGGACAAAAGCAUGUACAUGAGGAUCACCCAUGUUCAUGUACAAGCUUUUUGCUCGUCUUGUA [salish99_208a_r3_102x] (puzzle: Sensor for hsa-mir-208a) | 367 nM | 17.2 nM | 483 nM
5 | AGUCCAGCCUGAGCUGGACAAAAGUAUGUACAUGAGGAUCACCCAUGUCAUGUACAAGCUUUUUGCUCGUCUUAAAA [Zipper 46 - 14] (puzzle: Sensor for hsa-mir-208a) | 287 nM | 23.6 nM | 377 nM
6 | AGUCCAGCGAAAGCUGGACAAAAGCAUGUACAUGAGGAUCACCCAUGUUCAUGUACAAGCUUUUUGUUCGUCUUAAA [JL mod - D95 - 14] (puzzle: Sensor for hsa-mir-208a) | 314 nM | 13.4 nM | 601 nM
7 | AGUCCAGCGAAAGCUGGACAAAAGCAUGUACAUGAGGAUCACCCAUGUUCAUGUACAGGCUUUUUGCUCGUCUUAAA [JL mod - D95 - 8] (puzzle: Sensor for hsa-mir-208a) | 243 nM | 12.6 nM | 175 nM
8 | AGUCCAGCGAAAGCUGGACAAAAGCAUGUACAUGAGGAUCACCCAUGUUCAUGUAUAAGCUUUUUGCUCGUCUUAAA [JL mod - D95 - 12] (puzzle: Sensor for hsa-mir-208a) | 18.1 nM | 9.2 nM | 15.9 nM
9 | AGUCCAGCGAAAGCUGGACAAAAGCAUGUACAUGAGGAUCACCCAUGUUCAUGUAUAAGCUUUUUGCUCGUUUUAAA [JL mod - D95 - 17] (puzzle: Sensor for hsa-mir-208a) | 16.2 nM | 10.2 nM | 15.9 nM
10 | AGUCCAGCGAAAGCUGGACAAAAGCAUGUACAUGAGGAUCACCCAUGUUUAUGUACAAGCUUUUUGCUCGUCUUAAA [JL mod - D95 - 11] (puzzle: Sensor for hsa-mir-208a) | 274 nM | 14.2 nM | 300 nM
11 | AUAAAACAUGAGGAUCACCCAUGUCAACAAAGUCGAGGAUAUGGGCAAAUAAAAUAAGAAUCAGAAGGCGAAUAAU [salish99_ss1_r3_030] (puzzle: Same State 1) | 265 nM | 330 nM | 404 nM
12 | AUAAAACAUGAGGAUCACCCAUGUCAACAAAGUCGAGGAUAUGGGCAAAUAAAAUUAGAACCAGAAGGCGAAUAAU [salish99_ss1_r3_020] (puzzle: Same State 1) | 34.4 nM | 330 nM | 379 nM
13 | AUAAAACAUGAGGAUCACCCAUGUCAACAAAGUCGAGGAUAUGGGCAAAUAAAUUAAGAACCAGAAGGCGAAUAAU [salish99_ss1_r3_021] (puzzle: Same State 1) | 36.9 nM | 236 nM | 313 nM
